Assay results as given in US20240182561A1 (Regeneron, published 2024).
Read-outs that look alike come from different tables or passages of the source.

T1: mouse CACNG1 expressed on cells (mouse, UniProt O70578 1-223)
T1 sequence (looked up): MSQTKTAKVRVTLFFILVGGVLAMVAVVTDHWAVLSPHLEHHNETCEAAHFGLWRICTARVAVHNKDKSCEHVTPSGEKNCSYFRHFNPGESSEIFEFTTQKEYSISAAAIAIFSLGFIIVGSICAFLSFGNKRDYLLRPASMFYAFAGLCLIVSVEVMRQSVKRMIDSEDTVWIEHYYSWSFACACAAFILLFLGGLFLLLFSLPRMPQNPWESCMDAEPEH


Experiments:
[1] = target: T2, human CACNG1 expressed on cells (human, UniProt Q06432 1-222); assay: cell-based or functional assay
T2 sequence (Q06432 whole entry): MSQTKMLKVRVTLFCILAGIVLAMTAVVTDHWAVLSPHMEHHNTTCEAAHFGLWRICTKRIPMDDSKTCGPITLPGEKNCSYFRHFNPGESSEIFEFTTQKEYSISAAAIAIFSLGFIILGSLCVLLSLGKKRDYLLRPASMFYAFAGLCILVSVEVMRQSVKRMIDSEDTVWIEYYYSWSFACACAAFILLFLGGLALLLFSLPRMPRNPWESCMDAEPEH

[2] = target: T2, human CACNG1 expressed on cells; assay: imaging cell binding, HuSKM myotubes
Method: (§1) HuSKM were seeded in collagen-coated 96-well plates (Greiner Bio-One #655956) at 8,500 cells/well and grown for 24 hours. The growth media was changed to MyoTonic Differentiation Media (Cook Myosite Cat #MD-5555) and replaced every 2 days. Myotubes were assayed after 6 days of differentiation. C2C12 mouse myoblasts were maintained in DMEM with 10% FBS and 1% penicillin-streptomycin supplement and grown in a 37° C. incubator with 5% CO₂. C2C12 cells were seeded in collagen-coated 96-well plates (Greiner Bio-One #655956) at 10,000 cells/well for the cell binding assay and 5,000 cells/well for the cell killing assay. After 24 hours, growth media was replaced with differentiation media (DMEM with 2% horse serum) and placed in a 37° C. incubator with 7.5% CO₂. C2C12 myotubes were assayed after 3 days of differentiation. HEK293/hCACNG1, HEK293/mCACNG1, and HEK293 cells were seeded at 10,000 cells (cell binding assay) or 2,000 (cell killing assay) per well in 96-well black collagen coated plates (Greiner Bio-One, cat #655956) in complete growth media and grown overnight at 37° C. in 5% CO₂.
(§2) Relative binding of anti-CACNG1 antibodies was assessed across the entire panel of cell lines via imaging analysis. […] After one wash with antibody dilution buffer, samples were fixed in CytoFix (BD Biosciences, Cat #554655) diluted 1:1 in PBS and supplemented with a 1:2000 dilution of Hoechst 33342 (Thermo, Cat #H1399) for 20 minutes on ice. Images were acquired with a 10× objective on the Opera Phenix (Perkin Elmer) and relative fluorescence units (RFU) was determined using Harmony software (Perkin Elmer).

[3] = target: T3, nanodisc embedded human CACNG1 expressed with a C-terminal PADRE-Flag-His tag (human, UniProt Q06432 1-222); assay: SPR, anti-His-captured nanodisc, 25 C
T3 construct: Captured on an anti-His Biacore surface; also called human CACNG1 nanodisc; CACNG1 nanodisc; not shown: C-terminal tag
T3 sequence (Q06432 whole entry): as above
Method: Equilibrium dissociation constants (KD values) for nanodisc embedded human CACNG1 expressed with a C-terminal […] tag (human CACNG1 nanodisc; concentration 0.82 mg/ml) binding to purified anti-CACNG1 antibodies were determined using a real-time surface plasmon resonance biosensor technology with a Biacore T200 instrument. The CM5 Biacore sensor surface was derivatized by amine coupling with a monoclonal mouse anti-His antibody (Cytiva; Marlborough, MA). All Biacore binding studies were performed in a buffer composed of 0.01M HEPES, 0.15M NaCl, 1 mM CaCl₂, 0.5 mM MgCl₂, pH 7.4 (HBS-N++ running buffer). Different concentrations of anti-CACNG1 antibodies (ranging from 300 nM to 12 nM in 5-fold serial dilutions) prepared in HBS-N++ running buffer were injected over the captured human CACNG1 nanodisc at a flow rate of 30 μL/minute. Antibody association was monitored for 2 minutes while dissociation was monitored in HBS-N++ running buffer for 5 minutes. At the end of each cycle, the human CACNG1 nanodisc capture surface was regenerated using three 10 second injections of 10 mM Gly pH1.5. All binding kinetics experiments were performed at 25° C.
The specific SPR-Biacore sensorgrams were obtained by a double referencing procedure. The double referencing was performed by first subtracting the signal of each injection over a reference surface (anti-His) from the signal over the experimental surface (anti-His captured human CACNG1 nanodisc) thereby removing contributions from refractive index changes. In addition, running buffer injections were performed to allow subtraction of the signal changes resulting from the dissociation of captured antibodies from the coupled anti-His surface. Kinetic association (kₐ) and dissociation ([…]) rate constants were determined by fitting the real-time sensorgrams to a 1:1 binding model using Scrubber v2.0c curve fitting software. Binding dissociation equilibrium constants (KD) and dissociative half-lives (t %) were calculated from the kinetic rate constants as: […]

[4] = target: T2, human CACNG1 expressed on cells; assay: imaging cell binding, HuSKM myotubes; remark: listed apart in the source
Method: as §1, §2

[5] = target: T1, mouse CACNG1 expressed on cells; assay: cell-based or functional assay
[6] = target: T2, human CACNG1 expressed on cells; assay: cell-based or functional assay; remark: listed apart in the source
[7] = target: T1, mouse CACNG1 expressed on cells; assay: imaging cell binding, C2C12 mouse myotubes
Method: as §1, §2

[8] = target: T2, human CACNG1 expressed on cells; assay: imaging cell binding, HEK293/hCACNG1
Method: as §1, §2

[9] = target: T2, human CACNG1 expressed on cells; assay: cell-based or functional assay; remark: listed apart in the source
[10] = target: T2, human CACNG1 expressed on cells; assay: cell-based or functional assay; remark: listed apart in the source
[11] = target: T2, human CACNG1 expressed on cells; assay: cell-based or functional assay; remark: listed apart in the source
[12] = target: T2, human CACNG1 expressed on cells; assay: cell-based or functional assay; remark: listed apart in the source
[13] = target: T2, human CACNG1 expressed on cells; assay: cell-based or functional assay; remark: listed apart in the source
[14] = target: T2, human CACNG1 expressed on cells; assay: cell-based or functional assay; remark: listed apart in the source
[15] = target: T1, mouse CACNG1 expressed on cells; assay: imaging cell binding, C2C12 mouse myotubes; remark: listed apart in the source
Method: as §1, §2

[16] = target: T1, mouse CACNG1 expressed on cells; assay: imaging cell binding, HEK293/mCACNG1
Method: as §1, §2

[17] = target: T2, human CACNG1 expressed on cells; assay: imaging cell binding, HEK293/hCACNG1; remark: listed apart in the source
Method: as §1, §2

[18] = target: T2, human CACNG1 expressed on cells; assay: live myotubes (human myotubes per paragraph 866) incubated with antibody, detection with Alexa 647-conjugated F(ab')2 secondary antibody, Hoechst counterstain, fluorescence imaging; titration 100 to 0.02 nM and 0 nM

Row | Binder | EC50/IC50, indirect cell killing, HuSKM [1] [nM] | EC50 [2] [nM] | S/N [2] [fold] | Kd [3] [nM] | koff [3] [s⁻¹] | kon [3] [M⁻¹ s⁻¹] | mAb bound at 300 nM [3] [RU] | t1/2 [3] [min] | % KILL, indirect cell killing, HEK293/mCACNG1 [5] [%] | EC50/IC50, indirect cell killing, HEK293/mCACNG1 [5] [nM] | % KILL, indirect cell killing, HEK293/hCACNG1 [6] [%] | % KILL, indirect cell killing, HuSKM [6] [%] | EC50/IC50, indirect cell killing, HEK293/hCACNG1 [6] [nM] | EC50/IC50, indirect cell killing, HuSKM [6] [nM] | also measured
1 | REGN9908 (antibody, mouse IgG2b, V domains shown, mIgG2b) VH: EVQLLESGGGLAQPGGSLRLSCAASGFTFSSYAMSWVRQAPGKGLEWVSSVSGSGGTTYYAASVKGRFTVSRDNSKKTLYLQMNSLRAEDTAVYYCGKGGYCSSSGCRHYGMDVWGQGTTVTVSA VL: QSVLTQPPSASGTPGQRVAISCSGSNSNIGNNYLYWYQQIPGTTPKLLIYRNNQRPSGVPDRFSASKSGTSASLAISGLRSGDEADYYCAAWDDSLSGYVFGTGTKVTVLG | 0.0859 | 14.8 | 164 | 9.57 | 0.00402 | 419000 | 21 | 2.9 |  |  |  |  |  |  | 
2 | REGN9909 (antibody, mouse IgG2a, kappa, V domains shown, mIgG2a) VH: EVQLLESGGGLVQPGGSLRLSCAASGFTFNNYGMSWVRQGPGKGLEWVSSISGSGGTTFYADSVKGRFTISRDNSKNTLYLQMNSLRAEDTAVYYCGKGGYCSSSGCRHYGMDVWGQGTTVTVSS VL: QSVLTQPPSASGTPGQRVTISCSGSSSNIGNNYIYWYQRLPGTTPKLLIYRNNQRPSGVPDRFSGSKSGTSASLAISGLRSEDEADYYCAAWDDTLSGYVFGTGTKVTVLR | 0.00968 | 6.51 | 141 | 4.15 | 0.00137 | 331000 | 22 | 8.4 | 88.5 | 0.0612 | 95.2 | 99.5 | 0.00235 | 0.0183 | EC50 [4]: 14 nM; S/N [4]: 171 fold; EC50 [7]: 8.3 nM; S/N [7]: 4.2 fold; EC50 [8]: 1.6 nM; S/N [8]: 5.4 fold
3 | REGN14573-M3004 (antibody, human IgG1, lambda, N297Q, N297Q; DHT linker-payload M3004 conjugated, DAR about 4) heavy chain: not shown light chain: QSVLTQPPSVSAAPGQKVTISCSGSSSNIGNNYVSWYQQLPGTAPKLLIYDNNKRPSGIPDRFSGSKSGTSATLGITGLQTGDEADYYCGTWDLSLSFNWVFGGGTKLTVLGQPKAAPSVTLFPPSSEELQANKATLVCLISDFYPGAVTVAWKADSSPVKAGVETTTPSKQSNNKYAASSYLSLTPEQWKSHRSYSCQVTHEGSTVEKTVAPTECS |  |  |  |  |  |  |  |  |  |  |  |  |  |  | EC50 of androgen receptor luciferase reporter activation (RLU) by the DHT conjugate REGN14573-M3004 in hCACNG1.AR.Luc LNCaP cells, 72 hours; concentration adjusted for DAR [9]: 185 nM; EC50 of androgen receptor luciferase reporter activation (RLU) by the DHT conjugate REGN14573-M3004 in hCACNG1.AR.Luc LNCaP cells, 24 hours; concentration adjusted for DAR [10]: 214 nM; EC50 of androgen receptor luciferase reporter activation (RLU) by the DHT conjugate REGN14573-M3004 in hCACNG1.AR.Luc LNCaP cells, 48 hours; concentration adjusted for DAR [11]: 213 nM
4 | REGN5972 (antibody, V domains shown, also called H4H31265P2/REGN5972; CACNG1 hIgG1 antibody) VH: QVQLVESGGGVVQPGRSLRLSCTASGFTFRSYGMHWVRQAPGKGLEWVSVIWIDGNNIYYADSVKGRFTISRDNSKNTLYLQMDSLRAEDTAVYYCARRLAITSAAPFDYWGQGTLVTVSS VL: not shown |  | 2.9 | 313 |  |  |  |  |  | 11 | > 1 | 95.4 | 97.4 | 0.00139 | 0.585 | EC50 of androgen receptor luciferase reporter activation (RLU) by the DHT conjugate REGN5972-M3004 in hCACNG1.AR.Luc LNCaP cells, 24 hours; concentration adjusted for DAR [12]: 19 nM; EC50 of androgen receptor luciferase reporter activation (RLU) by the DHT conjugate REGN5972-M3004 in hCACNG1.AR.Luc LNCaP cells, 72 hours; concentration adjusted for DAR [13]: 7.79 nM; % KILL, indirect cell killing, C2C12 [5]: 0%; EC50/IC50, indirect cell killing, C2C12 [5]: > 10 nM; EC50 of androgen receptor luciferase reporter activation (RLU) by the DHT conjugate REGN5972-M3004 in hCACNG1.AR.Luc LNCaP cells, 48 hours; concentration adjusted for DAR [14]: 6.49 nM; S/N [15]: 1.6 fold; EC50 [16]: > 100 nM; S/N [16]: 5.3 fold; EC50 [17]: 6.6 nM; S/N [17]: 172 fold
5 | REGN7854 (antibody, human IgG4 S228P, kappa, V domains shown, also called CACNG1 Ab) VH: QVQLVQSGAEVKKPGASVKVSCKASGYAFTTYGITWVRQAPGQGLEWMGWISAYNGNTNYAEKVQGRFTMTTDTSTNTAYMELRSLRSDDTAVYFCARKGHYGSGTYYNPFGFDFWGQGTMVTVSS VL: EIVLTQSPGTLSLSPGERATLSCRASQSVSSSYLAWYQQKPGQAPRLLIYGASSRATGIPDRFSGSGSGTDFTLTISRLEPEDFALYFCQQYYGSPWTFGQGTKVEIKR |  |  |  |  |  |  |  |  |  |  |  |  |  |  | binding result [18]: binds
